Data taken from the supplement of paper PMC9732359.
± gives the uncertainty stated by the source.

Test: protein stability index of a GFP-peptide fusion (yeast GPS) (PSI 1-4); higher = more stable; sorted into four equal gates, so the index is relative within each strain
Method in brief: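 Plasmids isolated from each sorting gate were PCR-amplified and Illumina-sequenced, and barcodes assigned the reads to strains. The gates, four of equal size, were set by GFP/Cherry fluorescence ratio on mid-log cultures in leucine-free medium. These cultures were yeast carrying a pooled library of tiled 17-residue yeast protein peptides fused downstream of GFP on a plasmid that also expresses Cherry. The protein stability index is the sum of every gate's read frequency times its gate number.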

Sequence | protein stability index (doa10∆) | protein stability index (pdr5∆) | protein stability index (san1∆) | protein stability index (ubr1∆)
LYPIFLLDDKKLMDEDS [YJR042W/NUP85] | 2.01 ± 0.09 | 1.84 ± 0.14 | 1.38 ± 0.29 | 1.66 ± 0.057
LYQSKGRYMEALALYVD [SRP68] | 1.86 ± 0.076 | 1.9 ± 0.14 | 1.9 ± 0.15 | 2 ± 0.11
LYTLAQETEGTNRHTLA [SIR3] | 2.73 ± 0.077 | 2.09 ± 0.072 | 2.2 ± 0.084 | 2.52 ± 0.059
LYVDSESTSSTEEVEAL [MTW1] | 2.92 ± 0.11 | 3.76 ± 0.15 | 3.14 ± 0.19 | 3.24 ± 0.11
LYVLPSFNIPRLTFKPW [YMR129W/POM152] | 2.2 ± 0.12 | 1.7 ± 0.096 | 1.69 ± 0.18 | 1.54 ± 0.096
LYYRPHINKKSQLDLFL [GRR1] | 1.78 ± 0.071 | 2.17 ± 0.12 | 1.28 ± 0.1 | 1.85 ± 0.093
MAESHRLYVKGKHLSYQ [RPL33A] | 2.71 ± 0.077 | 2.84 ± 0.068 | 2.52 ± 0.073 | 2.62 ± 0.058
MAFQKDAKSSAYSSRFQ [RPL5] | 2.67 ± 0.11 | 2.89 ± 0.072 | 3.02 ± 0.061 | 2.92 ± 0.064
MAFRKSNVYLSLVNSYI [COB] | 2 ± 0.049 | 2.08 ± 0.078 | 1.96 ± 0.079 | 2.36 ± 0.064
MALNKVLITDHIEKLEN [CDC53] | 2.52 ± 0.053 | 2.14 ± 0.047 | 2.15 ± 0.059 | 2.28 ± 0.052
MAPLSLNFKDDKKYKGL [REC8] | 2.66 ± 0.089 | 2.61 ± 0.14 | 2.47 ± 0.065 | 2.47 ± 0.075
MATLEELDAQTLPGDDE [RPT5] | 3.31 ± 0.12 | 3.28 ± 0.15 | 3.35 ± 0.13 | 3.49 ± 0.13
MCEQALSALFTISSKPD [YCS4] | 2.22 ± 0.038 | 1.72 ± 0.04 | 1.87 ± 0.056 | 1.77 ± 0.032
MCQNPMQKPVPFVPVLD [FAS1] | 1.47 ± 0.039 | 1.54 ± 0.034 | 1.29 ± 0.061 | 1.52 ± 0.031
MDFGVDPSMDPELAMAL [RPN10] | 2.88 ± 0.077 | 3.15 ± 0.079 | 2.99 ± 0.074 | 2.84 ± 0.069
MDHEEARRKHVSGKILG [RPS22A] | 2.83 ± 0.28 | 2.65 ± 0.24 | 2.87 ± 0.24 | 3.02 ± 0.12
MDIAERIAVLHQKTKTL [YGL172W/NUP49] | 2.14 ± 0.076 | 1.67 ± 0.058 | 1.81 ± 0.11 | 1.51 ± 0.067
MDIMEDFLRYINIKYLR [SNF2] | 1.54 ± 0.039 | 1.37 ± 0.044 | 1.37 ± 0.12 | 1.3 ± 0.036
MDSIIPAGVKLDDLQVI [PGD1] | 2.5 ± 0.093 | 3.05 ± 0.091 | 2.57 ± 0.061 | 2.52 ± 0.056
MDVDQFDFLDDGTAQLS [YJR042W/NUP85] | 2.46 ± 0.079 | 2.98 ± 0.075 | 3.32 ± 0.068 | 2.53 ± 0.063
MDVDSVKTTLVSLTQLR [RPC82] | 2.57 ± 0.1 | 1.81 ± 0.074 | 2.08 ± 0.12 | 1.5 ± 0.093
MEIVANAKESNYTDLIW [MED1] | 3.27 ± 0.094 | 3.41 ± 0.16 | 3.44 ± 0.078 | 2.83 ± 0.081
MEKLDAKLNHLKKLEKF [SWI3] | 2.81 ± 0.13 | 2.7 ± 0.1 | 3.02 ± 0.12 | 
MFTYSQETQHGNITRGL [RPN2] | 3.28 ± 0.08 | 3.12 ± 0.12 | 3.13 ± 0.06 | 3.21 ± 0.046
MGAYKYLEELQRKKQSD [RPL15A] |  | 2.75 ± 0.28 |  | 
MGKSAVIFVERATPATL [SRB2] | 2.36 ± 0.14 | 1.31 ± 0.076 | 1.66 ± 0.2 | 1.31 ± 0.29
MGPPSGKTYMGWWGHMG [QCR8] |  |  | 3.13 ± 0.2 | 

Sequence | protein stability index (doa10∆) | protein stability index (pdr5∆) | protein stability index (san1∆) | protein stability index (ubr1∆)
MGRVRTKTVKRASKALI [RPS17A] | 3.05 ± 0.12 | 1.87 ± 0.086 | 3.1 ± 0.069 | 1.52 ± 0.06
MGSRRYDSRTTIFSPEG [PRE9] | 3.36 ± 0.2 | 3.01 ± 0.17 | 2.89 ± 0.19 | 3.06 ± 0.15
MIISGSRDKTIKVWTIK [ASC1] | 2.48 ± 0.084 | 2.71 ± 0.092 | 2.49 ± 0.11 | 2.95 ± 0.087
MILNYNPSQGVSNSGAQ [UBP6] | 3.25 ± 0.096 | 3.37 ± 0.086 | 3.14 ± 0.064 | 3.25 ± 0.055
MKAVGEYMKRHPTTIES [SEC65] | 1.93 ± 0.17 | 2.24 ± 0.23 | 1.64 ± 0.3 | 
MKQYRDFLGVASTGSGK [PRP28] | 2.77 ± 0.1 | 2.72 ± 0.12 | 2.88 ± 0.061 | 2.93 ± 0.043
MKQYSYLMDSKNVRTRI [RRI1] |  | 2.6 ± 0.26 |  | 2.94 ± 0.22
MKTKTINAQGEEIVVVA [PRP8] | 1.72 ± 0.089 | 1.92 ± 0.12 | 1.36 ± 0.19 | 1.52 ± 0.06
MKVFVTKHLMPQDLTFN [RPB7] | 2.96 ± 0.062 | 2.87 ± 0.054 | 2.54 ± 0.066 | 2.94 ± 0.051
MLKQHLFKYQGHIGAYL [PUP1] | 2.17 ± 0.064 | 2.34 ± 0.063 | 2.25 ± 0.092 | 2.25 ± 0.071
MMCDFGTGNNNKLNFIV [DIB1] | 1.13 ± 0.084 | 1.22 ± 0.048 | 1.96 ± 0.15 | 1.6 ± 0.061
MNIIQQQQQQNTNNNDT [GAL11] | 2.43 ± 0.042 | 2.63 ± 0.047 | 2.46 ± 0.044 | 2.52 ± 0.04
MNRPGARVTRRKRCKGT [RPL11A] | 3.05 ± 0.21 | 3.25 ± 0.13 | 3.46 ± 0.081 | 3.15 ± 0.13
MPPKFDPNEVKYLYLRA [RPL12A] | 2 ± 0.093 | 2.09 ± 0.17 | 2.98 ± 0.2 | 1.78 ± 0.079
MQENDKINQERLERRIN [CSI1] | 1.62 ± 0.065 | 1.92 ± 0.062 | 1.26 ± 0.1 | 1.27 ± 0.044
MQFAKSKTVKVLKTLIE [RPN6] | 1.24 ± 0.071 | 1.43 ± 0.077 | 2.51 ± 0.11 | 2.26 ± 0.093
MQHNPLAGKRGPKSGST [PGD1] | 2.94 ± 0.064 | 2.74 ± 0.057 | 2.85 ± 0.063 | 2.96 ± 0.048
MQVYLVPIERVAQLKPF [RPC37] | 1.9 ± 0.079 | 1.77 ± 0.065 | 1.87 ± 0.063 | 2.54 ± 0.058
MREITETIAEAKKKVLD [RPO21] | 3.5 ± 0.13 | 3.42 ± 0.09 | 3.42 ± 0.037 | 3.24 ± 0.091
MSGRGKGGKGLGKGGAK [HHF1] | 3.69 ± 0.29 | 3.56 ± 0.27 | 3.61 ± 0.097 | 3.58 ± 0.074
MSIVFGDKFSEDFRIQF [UBP6] | 3.28 ± 0.13 | 2.71 ± 0.1 | 2.2 ± 0.092 | 2.37 ± 0.063
MSLQHEKVTIAPLVLLS [RPN8] | 1.19 ± 0.035 | 1.28 ± 0.032 | 1.2 ± 0.068 | 1.21 ± 0.031
MSSDASTYRLEDVLSSF [SSN2] | 2.21 ± 0.073 | 2.38 ± 0.069 | 1.9 ± 0.1 | 2.56 ± 0.091
MSVERGIRWELISRLCP [RPT1] | 1.73 ± 0.052 | 2.17 ± 0.048 | 1.88 ± 0.07 | 1.93 ± 0.034
MTNLTYFLHLSVFNAEL [YCS4] | 1.62 ± 0.061 | 1.48 ± 0.047 | 1.87 ± 0.09 | 1.76 ± 0.073
MTVTKVSLPEGSFKRVK [BRR2] | 2.92 ± 0.13 | 2.72 ± 0.11 | 3.19 ± 0.076 | 3.17 ± 0.076
